Results reported in the domain aggregation screens of Martell et al. (2025).

Assay: soluble fraction after stress (log2 fold change); higher = more stays soluble; pooled small domains, quantitative proteomics
Settings: stress: 50 degC
Procedure, shortened: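 The stress applied to every library was 50°C. These custom libraries of small protein domains were pooled and measured at high throughput with quantitative proteomics as the read-out. Aggregation propensity is expressed as the base-two logarithm of the fold change in how much of each protein remains soluble. The higher the value, the more of that protein stays in solution.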

Sequence | soluble fraction (log2)
HMPKNRTDYVQDVLKSLGRPAHYKEITQIINAMLPKEAQYSAKSIQVVLGSSPLFIRVGTGTYALVE | -0.679
HMPHFGVVLQMDDWKTLRDRLEARDDIDWVMKPNLRFEGQPGEQATLFIRDPSGNALEFKGFADLSQVF | -0.348
HMGGKWKLRILLALENSAQDALRYGEIKNIVSGITDMMLSQSLRELTADGLIERRQYQEIPPKVEYRLS | -2.51
HMAPGIGDSKYFSHIYEMKHIDTIIDNDKGDRLIEHFEIQDTPFIFTKHWTSAFGFSKRQQEIITDYLSYF | 0.0839
HMSTMTEQEAFGLWERINDFIARTGNEPNRNSNDAHEVRMAEALNFIRIKVAEQRNSQSNSEAQNN | -0.0168
HMSSDKVWSFEASGKQLQASYVAFENETVYLRASEDGSLLQFPLTDFGMKDQLVVLELYELSAKINRSN | -0.49
HMTADIRFLNSRKFYIYKVEKGETLFSISQKFNIPQEEIIQFNKDINQQGLKAKTKLWVPAYSWL | -3.38
HMGTGIKQVNVVSVIGQDEETAKTTLTNLGLKVNVTYATSTSDNGKVTKQSIDAGKTVDEGTSVTITVNKV | 0.241
HMIPTDPNGDLIKILYTSDQINELYARAKLNDVEDLFLDWTKNVLGESNFEETGPTKNEYLIPQ | -0.149
HMDSLNWVEKIINTLPEQQRLIIQMRDIEQYEFAEIAKILEMNETAIRVALSRARKTIREFMIKTH | -1.07
HMGGELLSLRRIGTLTGISYPTLLRYVARYGEQIPQTGTGRSRRFPPAAVPVFQELRATRGRAPRATA | -0.063
HMHIDQVIRERRLALGLTQEELANKIGVSAPAVSKWEKRVSYPDITLLPALARILGTDVNTLLTFS | -0.365
HMHSRLEDIPGIGPRRRAMLLRHFGGLAELKAAGVEEIARVEGINMALAQRLWRALHGVPDPT | -0.339
HMSRYAFEGNVVRLNQKDFDSWKALFTNIDLVSELTRLDIEFTHDKPKNWFSTASAKLNYQNKNAY | -2.27
HMDSLSLTELRIDSASPWIGNRISDFSPYAGELVIMIIRGEETIVPNGDTIILDKDLLVIYSS | -2.18
HMENLRLSELTVERGHRLAGRTLADIASAPNSPKYLIVLIQRGQETVIPTGSTVILPGDVLILAQS | -0.605
HMGSLPPPKDGTTIYVVKPGDSLWRISGKFFGNPLFWPRLWEINPNIDNPNKIYPGDVISLKP | 0.00421
HMGRHSPLSIEQKEQLKTEIVALQQQRGGGRVTAVNIAELIQQKFNVVYNPNSLYKLLKQIGMSWV | -1.2
HMNVPFGFDEVNGKLVKNEEEQAIISEIKSLKNKGLSLRKIAEALNGRGIATKNGKAWTAVQIQRIA | -0.0386
HMGVKHKHKGAGELLAALRTMFPNSSVSTLRKMLTQGRVVLNGEVVHRAKHELTDGDTIEVLERQRAER | 0.209
HMRGLFTVYMVGEKASRVGELDEEMVYESRIGDVFALGATSWRIEEITHDRVLVSPAYGQPGRLPFWH | -2.14
HMSVPRPSAVEVTSLVTGVRDLLPHLGEGYVERVLVEFGFKVDETINALLEGNLPKHLQDLDPSLTKEI | -0.662
HMGSIGAMLSSPELYGKLATNPATRGFLSQPDFIAMLTDVQKNPDKFGSYMSDPRMMQVLSVALG | 0.118
HMGEKTLSEKVYDRLKELIMDGELERGTKITETSIAKMFDVSPTPVREAFRKLASDGLIEVASWKGVIVKG | -0.0886
HMEEDPILVAQRFLNIFRQLHIFDQQRREEFNSMILALPPEIRGTFGVLPGGSVLQEYVDELEISKGMA | -0.512
HMSLEEQNGAKDRQVEAYELLLKAQRALDQEDTAGFQAAMKDLEPLSSQLDAQGQTLYHELLPFVS | -0.0812
HMENTIPSVIGRTLSDGVFLLESYGYVKGNVSEEFSEMPIGVIIRQFPGAGSAAEAGTRVDLVVSKGEEIV | -0.0523
HMPQIDLYPFEVRIEQDNNAAEYAVRFLDVPNIIGSGASIDEAIVEARGNLKEYLDYLIDTNRDIPLPS | -0.412

Sequence | soluble fraction (log2)
HMITLYIHNLEEVGKRLDHYLVSNLDDHSRSQIQSWIRSGSILVNDRSVKTGYSLELNDQILINPPK | -2.63
HMFEYDEEEYEKLGPNADLTIKSMTDWGQSLVRKGVWSESDFEEFKIMGGTAQGLRALQKVRSYY | -0.451
HMEVSKETFPAYVAVDSLPVYKSASTSSSKVTTIDFGREVTVVETRGGWAKIQYGSYKGFAEIEGMSKN | -0.368
HMATPTMEDYIEVIYSLVKTKGYARSADIAEKLEVYPSTVTKMLKKLDAEGYIVYEKYRGIALTDIGKKMG | -1.73
HMHDITPAVAETFKQLRAERGLSLSQAAQLTGVSKAMLGQIERGQSSPTVSTLWKIATGFNVAFSVFL | -2.4
HMDEEQIASRRALIMRAAREIMETQGMEALSIRKIAAMIQQTPGIIYHYFSGKEELMLAVVQEGYH | 0.111
HMTKAGVDAWTRGDYAAAVKEWQAQAAKGDADAIFNLGQAFKLGKGVPQDLIKAEQLFGQAAA | 0.154
HMDENMQRYNTMEEIKKEFPYAEDTVRKLIAMGAIRGGGKVDANGDPADMDLSRDMLRMMVFNDRAGAYG | 0.544
HMARHIHFEVHVQQAGRWSIHAQFGAGQREKAIEEAKKIEKTPGFDSVKVVKETYDSDLGNHQDTTIYRGP | -0.506
HMPEVYPFEVAEDDAGKRLDVFLSEEIEEFTRSFIQKLIAGGLASVNRAPARASYRVKPRDLVELQVPE | -0.448
HMARLQEVVVRVPVEDGQTLAAIYREAEVIERADEGTGVLLTVRIPAPLLGRLRRLEGVHVQP | -0.125
HMQKVPDAFKAEQVQTLITRLGVSRAELARTLDVSLSTVNKWASGAVEPKGSALVLLKVLWMHGFKAL | -2.14
HMFDLKKIYGTILDETKSSLLLSTDDGREVQIIKTDGTEVLASGLGVYVEVAYRDETPDGYPIALTI | -0.193
HMKNTIPVPHIIGLSEQEARETLERAGLQLNVIKTEPNTKYESGQVTDTNPNEGIKVPKGTIVNVVLADS | -0.00961
HMKVEFDAMDKRILELMAKEYDTVLMARHLPLTPIVIDVRKKRIREVLNLPDATDAEIVIEAKEKDII | -0.322
HMTNYSFIVNENFNNKRIDQVVANHYPKISRTKVNKIIKNNLLKLNGSTFNDPSAKVKLGDQIEFENL | 0.389
HMEKLPRYILPGVPKVKSINISSALDGLVQDYSREFNISQKDIFQIALVEFFKKYGYHNAVKAVL | -0.314
HMDARSTHIAAIHVLKSKLQLQDSDYRALLLTLTGQTSSKDLSEHQRRAVRNHMQQLAERMGVVQ | -0.533
HMIEEIAVPEILGMQEEEAKAKIEGLGLVFNVTDRVKSNEYEKGEVMYQSVGPDDTTVKSGYPINVTISEG | -0.0543
HMTSLAGIERFLASGAIAGVGEAMAHRLVQKFGKETLEIIEKKPSRLTEVAGVGKKTAAKIHASYMEK | -0.106
HMDSPVEEWANRGLAYDPSLVTETMAKLYAKQGQIGLARKAFKRLALIYPEKSVYFAFQLKKLSNN | -1.63
HMVTLYDGFLSELRKRIPRGAELTNTLVDMLYIEREAVYRRLRGEVPFTFIEVMTVSKELGISLDNLAQA | -1.23
HMKRISDEDLLVMRRIDEVHTYHPTWGYRTITRILRRDDHLLINPKKVRRIMRDMGIYTIYPK | -0.039
HMHSFGLHVRNLRKKSNLTLSQLSNASGLSLSAISKIENNQISPSFINLIRLAEGLKMHIADLVTVK | -2.13
HMAPSVNEVAWAQKIIDAHAEAAAAGKGLVVVDGKLIENLHVEEAKQLLSLSDAIAKNDASNG | 0.16
HMPLQYRLTVQPTPTNARVRLVNSAFTYRPGVALPPGSYIVEVSSSGYGAKRQAVQIADGDVTVPVELEKI | -0.012
HMSVYIGVDQAKSIAAEHAGLSNSAVTFSKAKLENDDGMTVYEVEFFYQGTEYDYKIDASTGSILEYDLDR | -1.26
